Results taken from paper PMC8694623 (Science Advances, 2021).

How the values were obtained:
[1] = target: the molecule itself; experiment: negative-stain EM
[2] = target: the molecule itself; experiment: cryo-EM structure

Row | Protein | binding result [1] | binding result [2]
1 | Atm1-L657 truncation mutant (residues 92 to 656), C-terminally Strep-tagged (domain or fragment, S. cerevisiae, UniProt P40416 92-656, looked up) LKDLFRYIWPKGNNKVRIRVLIALGLLISAKILNVQVPFFFKQTIDSMNIAWDDPTVALPAAIGLTILCYGVARFGSVLFGELRNAVFAKVAQNAIRTVSLQTFQHLMKLDLGWHLSRQTGGLTRAMDRGTKGISQVLTAMVFHIIPISFEISVVCGILTYQFGASFAAITFSTMLLYSIFTIKTTAWRTHFRRDANKADNKAASVALDSLINFEAVKYFNNEKYLADKYNGSLMNYRDSQIKVSQSLAFLNSGQNLIFTTALTAMMYMGCTGVIGGNLTVGDLVLINQLVFQLSVPLNFLGSVYRDLKQSLIDMETLFKLRKNEVKIKNAERPLMLPENVPYDITFENVTFGYHPDRKILKNASFTIPAGWKTAIVGSSGSGKSTILKLVFRFYDPESGRILINGRDIKEYDIDALRKVIGVVPQDTPLFNDTIWENVKFGRIDATDEEVITVVEKAQLAPLIKKLPQGFDTIVGERGLMISGGEKQRLAIARVLLKNARIMFFDEATSALDTHTEQALLRTIRDNFTSGSRTSVYIAHRLRTIADADKIIVLDNGRVREEGKH | binds | –
2 | S. cerevisiae Atm1-Strep (ABC transporter of mitochondria 1), wild type (natural protein, UniProt P40416 92-690, looked up) LKDLFRYIWPKGNNKVRIRVLIALGLLISAKILNVQVPFFFKQTIDSMNIAWDDPTVALPAAIGLTILCYGVARFGSVLFGELRNAVFAKVAQNAIRTVSLQTFQHLMKLDLGWHLSRQTGGLTRAMDRGTKGISQVLTAMVFHIIPISFEISVVCGILTYQFGASFAAITFSTMLLYSIFTIKTTAWRTHFRRDANKADNKAASVALDSLINFEAVKYFNNEKYLADKYNGSLMNYRDSQIKVSQSLAFLNSGQNLIFTTALTAMMYMGCTGVIGGNLTVGDLVLINQLVFQLSVPLNFLGSVYRDLKQSLIDMETLFKLRKNEVKIKNAERPLMLPENVPYDITFENVTFGYHPDRKILKNASFTIPAGWKTAIVGSSGSGKSTILKLVFRFYDPESGRILINGRDIKEYDIDALRKVIGVVPQDTPLFNDTIWENVKFGRIDATDEEVITVVEKAQLAPLIKKLPQGFDTIVGERGLMISGGEKQRLAIARVLLKNARIMFFDEATSALDTHTEQALLRTIRDNFTSGSRTSVYIAHRLRTIADADKIIVLDNGRVREEGKHLELLAMPGSLYRELWTIQEDLDHLENELKDQQEL | – | binds
